Target: recombinant wild type full-length human galectin-3, His-tagged (unphosphorylated)
Sequence (chain, as listed by the source): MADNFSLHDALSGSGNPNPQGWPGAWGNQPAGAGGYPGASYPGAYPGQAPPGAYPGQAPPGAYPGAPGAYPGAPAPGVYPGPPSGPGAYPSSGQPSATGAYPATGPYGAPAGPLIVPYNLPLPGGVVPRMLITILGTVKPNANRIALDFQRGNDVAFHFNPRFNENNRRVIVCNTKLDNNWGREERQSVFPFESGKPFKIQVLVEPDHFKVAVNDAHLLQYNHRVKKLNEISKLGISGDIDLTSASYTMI

B1: active c-Abl kinase (protein)
chain: PVNSLEKHSWYHGPVSRNAAEYLLSSGINGSFLVRESESSPGQRSISLRYEGRVYHYRINTASDGKLYVSSESRFNTLAELVHHHSTVADGLITTLHYPAPKRNKPTVYGVSPNYDKWEMERTDITMKHKLGGGQYGEVYEGVWKKYSLTVAVKTLKEDTMEVEEFLKEAAVMKEIKHPNLVQLLGVCTREPPFYIITEFMTYGNLLDYLRECNRQEVNAVVLLYMATQISSAMEYLEKKNFIHRDLAARNCLVGENHLVKVADFGLSRLMTGDTYTAHAGAKFPIKWTAPESLAYNKFSIKSDVWAFGVLLWEIATYGMSPYPGIDLSQVYELLEKDYRMERPEGCPEKVYELMRACWQWNPSDRPSFAEIHQAFETMFQESSISDEVEKELGKQGVRGAVSTLLQAPELPTKTRTSRRAAEHRDTTDVPEMPHS
- in vitro tyrosine phosphorylation of galectin-3 (c-Abl kinase assay, pTyr blot): phosphorylating galectin-3 in vitro with active c-Abl

From patent US20150377889
